# Measurements: PMC8773746
# B1: Human S100P protein (wild-type) (natural protein)
# chain: MTELETAMGMIIDVFSRYSGSEGSTQTLTKGELKVLMEKELPGFLQSGKDKDAVDKLLKDLDANGDAQVDFSEFIVFVAAITSACHKYFEKAGL
# Target: Human erythropoietin (Epoetin β) (human) (UniProt P01588)
# Assay: SPR; EPO immobilised by amine coupling on a ProteOn GLH chip (up to 3 000 RU); S100 or CaM as analyte (0.25–4 μM); 25 °C; 10 mM HEPES, 150 mM NaCl, 0.05% TWEEN 20, pH 7.4, 1 mM CaCl2; heterogeneous ligand model, values averaged over analyte concentrations (n = 5)
binder,measurement,value
B1,"Kd1 (heterogeneous ligand model, ligand population L1)",540 nM
same,"Kd2 (heterogeneous ligand model, ligand population L2)",1.8 µM
same,"ka1 (heterogeneous ligand model, ligand population L1)",2000 M⁻¹ s⁻¹
same,"ka2 (heterogeneous ligand model, ligand population L2)",16000 M⁻¹ s⁻¹
same,"kd1 (heterogeneous ligand model, ligand population L1)",0.0011 s⁻¹
same,"kd2 (heterogeneous ligand model, ligand population L2)",0.028 s⁻¹
